Laboratory results from publication PMC4997581.

B1: HCMV protein kinase pUL97, Flag-tagged (pUL97-Flag), P16788 1-707 (natural protein)
chain: MSSALRSRARSASLGTTTQGWDPPPLRRPSRARRRQWMREAAQAAAQAAVQAAQAAAAQVAQAHVDENEVVDLMADEAGGGVTTLTTLSSVSTTTVLGHATFSACVRSDVMRDGEKEDAASDKENLRRPVVPSTSSRGSAASGDGYHGLRCRETSAMWSFEYDRDGDVTSVRRALFTGGSDPSDSVSGVRGGRKRPLRPPLVSLARTPLCRRRVGGVDAVLEENDVELRAESQDSAVASGPGRIPQPLSGSSGEESATAVEADSTSHDDVHCTCSNDQIITTSIRGLTCDPRMFLRLTHPELCELSISYLLVYVPKEDDFCHKICYAVDMSDESYRLGQGSFGEVWPLDRYRVVKVARKHSETVLTVWMSGLIRTRAAGEQQQPPSLVGTGVHRGLLTATGCCLLHNVTVHRRFHTDMFHHDQWKLACIDSYRRAFCTLADAIKFLNHQCRVCHFDITPMNVLIDVNPHNPSEIVRAALCDYSLSEPYPDYNERCVAVFQETGTARRIPNCSHRLRECYHPAFRPMPLQKLLICDPHARFPVAGLRRYCMSELSALGNVLGFCLMRLLDRRGLDEVRMGTEALLFKHAGAACRALENGKLTHCSDACLLILAAQMSYGACLLGEHGAALVSHTLRFVEAKMSSCRVRAFRRFYHECSQTMLHEYVRKNVERLLATSDGLYLYNAFRRTTSIICEEDLDGDCRQLFPE
B2: pUL97 stably expressed in transduced HFFs, P16788 1-707 (natural protein)
chain: B1 chain

Biological target: Cyclin B1 (human (endogenous in 293T and HFF)), P14635
Sequence (P14635 whole entry): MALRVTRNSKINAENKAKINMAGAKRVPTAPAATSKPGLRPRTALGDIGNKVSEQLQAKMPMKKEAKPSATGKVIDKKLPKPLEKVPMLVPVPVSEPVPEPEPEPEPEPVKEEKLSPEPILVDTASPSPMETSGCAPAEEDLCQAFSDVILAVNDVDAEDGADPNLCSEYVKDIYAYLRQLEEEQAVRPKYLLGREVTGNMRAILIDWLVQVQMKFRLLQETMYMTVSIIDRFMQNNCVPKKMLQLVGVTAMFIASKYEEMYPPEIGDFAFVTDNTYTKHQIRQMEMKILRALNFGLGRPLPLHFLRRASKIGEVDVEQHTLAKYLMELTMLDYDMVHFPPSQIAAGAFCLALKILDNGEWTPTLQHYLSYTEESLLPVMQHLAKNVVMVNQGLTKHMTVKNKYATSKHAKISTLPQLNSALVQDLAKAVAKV
Experiment: co-IP
Details: remark: other sources report otherwise

Binder | pUL97 co-IP Western blot signal relative to cyclin B1
B1 | 100%
B2 | 100%
